Data taken from patent US20190002563A1 (MacroGenics, published 2019).

B1: DART-A (bispecific antibody)
chain 1: DIQLTQSPSFLSASVGDRVTITCKASQNVDTNVAWYQQKPGKAPKALIYSASYRYSGVPSRFSGSGSGTDFTLTISSLQPEDFATYYCQQYNNYPFTFGQGTKLEIKGGGSGGGGEVQLVESGGGLVQPGGSLRLSCAASGFTFSTYAMNWVRQAPGKGLEWVGRIRSKYNNYATYYADSVKDRFTISRDDSKNSLYLQMNSLKTEDTAVYYCVRHGNFGNSYVSWFAYWGQGTLVTVSSGGCGGGEVAALEKEVAALEKEVAALEKEVAALEKGGGDKTHTCPPCPAPEAAGGPSVFLFPPKPKDTLMISRTPEVTCVVVDVSHEDPEVKFNWYVDGVEVHNAKTKPREEQYNSTYRVVSVLTVLHQDWLNGKEYKCKVSNKALPAPIEKTISKAKGQPREPQVYTLPPSREEMTKNQVSLWCLVKGFYPSDIAVEWESNGQPENNYKTTPPVLDSDGSFFLYSKLTVDKSRWQQGNVFSCSVMHEALHNHYTQKSLSLSPGK
chain 2: QAVVTQEPSLTVSPGGTVTLTCRSSTGAVTTSNYANWVQQKPGQAPRGLIGGTNKRAPWTPARFSGSLLGGKAALTITGAQAEDEADYYCALWYSNLWVFGGGTKLTVLGGGGSGGGGEVQLVESGGGLVQPGGSLRLSCAASGFTFSSFGMHWVRQAPGKGLEWVAYISSDSSAIYYADTVKGRFTISRDNAKNSLYLQMNSLRDEDTAVYYCGRGRENIYYGSRLDYWGQGTTVTVSSGGCGGGKVAALKEKVAALKEKVAALKEKVAALKE
chain 3: not shown
notes: Three-chain Fc diabody, one B7-H3 site and one CD3 site; chains are disulfide bonded; also called B7-H3×CD3 bispecific monovalent Fc diabody
B2: DART-B (bispecific antibody)
chain 1: DIQMTQSPSSLSASVGDRVTITCRASQDISNYLNWYQQKPGKAPKLLIYYTSRLHSGVPSRFSGSGSGTDFTLTISSLQPEDIATYYCQQGNTLPPTFGGGTKLEIKGGGSGGGGEVQLVESGGGLVQPGGSLRLSCAASGFTFSTYAMNWVRQAPGKGLEWVGRIRSKYNNYATYYADSVKDRFTISRDDSKNSLYLQMNSLKTEDTAVYYCVRHGNFGNSYVSWFAYWGQGTLVTVSSGGCGGGEVAALEKEVAALEKEVAALEKEVAALEKGGGDKTHTCPPCPAPEAAGGPSVFLFPPKPKDTLMISRTPEVTCVVVDVSHEDPEVKFNWYVDGVEVHNAKTKPREEQYNSTYRVVSVLTVLHQDWLNGKEYKCKVSNKALPAPIEKTISKAKGQPREPQVYTLPPSREEMTKNQVSLWCLVKGFYPSDIAVEWESNGQPENNYKTTPPVLDSDGSFFLYSKLTVDKSRWQQGNVFSCSVMHEALHNHYTQKSLSLSPGK
chain 2: QAVVTQEPSLTVSPGGTVTLTCRSSTGAVTTSNYANWVQQKPGQAPRGLIGGTNKRAPWTPARFSGSLLGGKAALTITGAQAEDEADYYCALWYSNLWVFGGGTKLTVLGGGGSGGGGQVQLVQSGAEVKKPGASVKVSCKASGYTFTSYWMQWVRQAPGQGLEWMGTIYPGDGDTRYTQKFKGRVTITADKSTSTAYMELSSLRSEDTAVYYCARRGIPRLWYFDVWGQGTTVTVSSGGCGGGKVAALKEKVAALKEKVAALKEKVAALKE
chain 3: not shown
notes: Three-chain Fc diabody; also called B7-H3×CD3 bispecific monovalent Fc diabody

Columns and labels:
[1] = molecular target: T1, Cynomolgus B7-H3 (cynomolgus monkey); test: SPR (BIAcore)
T1 chain: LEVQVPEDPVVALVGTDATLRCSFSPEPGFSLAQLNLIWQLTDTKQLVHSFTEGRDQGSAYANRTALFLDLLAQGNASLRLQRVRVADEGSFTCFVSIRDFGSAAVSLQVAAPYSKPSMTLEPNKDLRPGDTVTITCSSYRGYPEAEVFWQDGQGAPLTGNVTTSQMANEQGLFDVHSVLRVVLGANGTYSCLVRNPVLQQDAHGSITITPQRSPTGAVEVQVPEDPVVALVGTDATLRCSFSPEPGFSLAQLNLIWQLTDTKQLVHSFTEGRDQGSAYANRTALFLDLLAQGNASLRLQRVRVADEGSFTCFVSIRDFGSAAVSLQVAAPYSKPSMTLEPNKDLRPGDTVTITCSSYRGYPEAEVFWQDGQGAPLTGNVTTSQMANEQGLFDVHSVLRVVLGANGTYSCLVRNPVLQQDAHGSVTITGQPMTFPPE

[2] = molecular target: T2, human B7-H3 on cells (human, UniProt Q5ZPR3 29-534); test: cell-based or functional assay
T2 sequence (looked up): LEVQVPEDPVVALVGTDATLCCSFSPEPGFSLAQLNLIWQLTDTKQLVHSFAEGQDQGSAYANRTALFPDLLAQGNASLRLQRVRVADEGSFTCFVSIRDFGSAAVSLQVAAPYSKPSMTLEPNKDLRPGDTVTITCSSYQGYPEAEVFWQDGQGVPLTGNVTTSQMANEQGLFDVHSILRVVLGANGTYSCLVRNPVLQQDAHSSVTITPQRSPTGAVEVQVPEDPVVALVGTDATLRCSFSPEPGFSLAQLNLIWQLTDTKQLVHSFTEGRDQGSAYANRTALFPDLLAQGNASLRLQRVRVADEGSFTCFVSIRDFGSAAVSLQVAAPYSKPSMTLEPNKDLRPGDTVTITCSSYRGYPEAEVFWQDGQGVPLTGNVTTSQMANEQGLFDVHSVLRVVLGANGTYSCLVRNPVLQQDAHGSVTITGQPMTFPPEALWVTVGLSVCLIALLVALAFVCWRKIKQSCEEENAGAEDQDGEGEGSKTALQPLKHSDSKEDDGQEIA

[3] = molecular target: T2, human B7-H3 on cells; test: cell-based or functional assay; remark: listed apart in the source
[4] = molecular target: T2, human B7-H3 on cells; test: cell-based or functional assay; remark: listed apart in the source

Binder | Kd [1] | koff [1] | kon [1] | EC50 of redirected killing, A375 target cells, E:T 1:1 (LDH assay) [2] | EC50 of redirected killing, A375 target cells, E:T 5:1 (LDH assay) [2] | EC50 of redirected killing, A375 target cells, E:T 10:1 (LDH assay) [2] | EC50 of redirected killing, A498 target cells, E:T 1:1 (LDH assay) [2] | EC50 of redirected killing, A498 target cells, E:T 5:1 (LDH assay) [2] | EC50 of redirected killing, A498 target cells, E:T 10:1 (LDH assay) [2] | EC50 of redirected killing, 22Rv1 target cells, human T cells, E:T 5:1 [3] | EC50 of redirected killing, A375 target cells, human T cells, E:T 5:1 [3] | EC50 of redirected killing, A498 target cells, human T cells, E:T 5:1 [3] | EC50 of redirected killing, BxPC-3 target cells, human T cells, E:T 5:1 [3] | EC50 of redirected killing, DU145 target cells, human T cells, E:T 5:1 [3] | EC50 of redirected killing, Detroit562 target cells, human T cells, E:T 5:1 [3] | EC50 of redirected killing, JIMT-1/Luc target cells, human T cells, E:T 5:1 [3] | EC50 of redirected killing, SKMES-1 target cells, human T cells, E:T 5:1 [3] | EC50 of redirected killing, U87 target cells, human T cells, E:T 5:1 [3] | potency of redirected cell killing against DART-A (target cell lines including A498, THP-1 and DU145) [4]
B1 | 30.2 nM | 0.0051 s⁻¹ | 170000 M⁻¹ s⁻¹ | 0.352 µg/mL | 0.243 µg/mL | 0.166 µg/mL | 0.129 µg/mL | 0.0425 µg/mL | 0.0272 µg/mL | 0.212 µg/mL | 0.097 µg/mL | 0.064 µg/mL | 0.196 µg/mL | 0.084 µg/mL | 1.28 µg/mL | 0.047 µg/mL | 0.319 µg/mL | 0.099 µg/mL | –
B2 | – | – | – | – | – | – | – | – | – | – | – | – | – | – | – | – | – | – | ~6 fold
